Laboratory results from patent publication US20190092856A1.

Molecular target: human OSM (recombinant, mammalian-cell derived, OSMN1-1) (human) (UniProt P13725)
Assay: cell-based or functional assay

Sequence of human OSM (recombinant, mammalian-cell derived, OSMN1-1) (human) (P13725 26-221 limits assumed): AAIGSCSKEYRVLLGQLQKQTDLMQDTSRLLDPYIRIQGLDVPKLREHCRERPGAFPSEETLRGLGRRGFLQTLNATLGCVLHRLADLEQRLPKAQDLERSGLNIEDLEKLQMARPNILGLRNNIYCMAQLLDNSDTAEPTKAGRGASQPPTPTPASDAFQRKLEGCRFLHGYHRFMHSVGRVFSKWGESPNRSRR

MAB295 (R&D Systems) (antibody)
pSTAT3 inhibition EC50 (A375 cells, 5 ng/ml hOSM): 72.1 ng/ml
